Measurements taken from IntAct's records for PubMed 9341158.

Experiments:
[1] = molecular target: ap1m1_human AP1M1 (UniProt Q9BXS5)
[2] = molecular target: ap2m1_rat Ap2m1 (UniProt P84092)
Chain of ap2m1_rat Ap2m1 (P84092 whole entry): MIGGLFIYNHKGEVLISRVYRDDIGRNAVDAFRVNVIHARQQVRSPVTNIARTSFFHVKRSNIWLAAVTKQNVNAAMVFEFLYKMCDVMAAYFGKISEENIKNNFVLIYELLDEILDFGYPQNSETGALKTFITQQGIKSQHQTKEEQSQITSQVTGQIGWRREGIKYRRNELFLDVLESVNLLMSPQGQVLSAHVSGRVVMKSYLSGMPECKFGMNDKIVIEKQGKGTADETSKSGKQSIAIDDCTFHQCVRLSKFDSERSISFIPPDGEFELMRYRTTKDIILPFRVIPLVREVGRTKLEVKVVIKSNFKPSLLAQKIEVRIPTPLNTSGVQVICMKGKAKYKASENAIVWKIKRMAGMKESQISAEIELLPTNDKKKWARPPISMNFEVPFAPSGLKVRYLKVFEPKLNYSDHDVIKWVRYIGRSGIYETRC

Chain of Trans-Golgi network integral membrane protein TGN38 (Rattus norvegicus (Rat)), P19814 Y350A (P19814 whole entry Y350A): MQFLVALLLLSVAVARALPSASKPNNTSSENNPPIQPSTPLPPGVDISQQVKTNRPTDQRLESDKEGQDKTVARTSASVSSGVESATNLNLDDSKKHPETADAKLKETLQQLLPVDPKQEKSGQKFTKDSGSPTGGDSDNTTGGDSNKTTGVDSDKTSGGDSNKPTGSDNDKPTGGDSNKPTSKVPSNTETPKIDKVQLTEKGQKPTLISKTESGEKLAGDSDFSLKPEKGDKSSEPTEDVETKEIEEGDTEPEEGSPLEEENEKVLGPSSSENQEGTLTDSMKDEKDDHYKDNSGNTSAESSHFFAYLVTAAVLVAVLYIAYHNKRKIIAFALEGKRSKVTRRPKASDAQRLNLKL
Chain of ap1m1_human AP1M1 (Q9BXS5 whole entry): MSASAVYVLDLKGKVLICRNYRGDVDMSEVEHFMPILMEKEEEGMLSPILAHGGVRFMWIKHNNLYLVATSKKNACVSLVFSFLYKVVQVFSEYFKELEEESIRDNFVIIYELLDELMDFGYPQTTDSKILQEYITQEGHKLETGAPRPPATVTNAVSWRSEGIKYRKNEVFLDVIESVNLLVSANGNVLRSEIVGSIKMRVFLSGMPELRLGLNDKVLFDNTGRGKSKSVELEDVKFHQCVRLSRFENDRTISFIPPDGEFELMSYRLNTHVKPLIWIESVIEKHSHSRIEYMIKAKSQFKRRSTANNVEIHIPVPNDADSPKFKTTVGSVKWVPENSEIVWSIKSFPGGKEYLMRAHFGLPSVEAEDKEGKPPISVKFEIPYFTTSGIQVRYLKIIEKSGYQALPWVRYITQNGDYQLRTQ

With “Trans-Golgi network integral membrane protein TGN38 (Rattus norvegicus (Rat)), P19814 Y350A” as the substance, how does the “effect of a mutation on the interaction” value [1] read?
Its value is “decreasing interaction”.

What about the “effect of a mutation on the interaction” value [2] of the same substance?
Its value is “decreasing interaction”.
